Test results taken from the nanobody polyreactivity screen of Harvey et al. (2022).

experiment: yeast display, Sf9 membrane polyspecificity reagent, FACS + sequencing; frameworks hold sequencing errors
How it was run: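 Nanobodies came from a synthetic yeast display library in Saccharomyces cerevisiae BJ5465, induced with galactose for 36–48 hours and stained for 1 hour at 4 °C with 10% biotinylated, detergent-solubilized Sf9 membrane reagent. Cells were enriched on streptavidin microbeads and then FACS-sorted, with low and high (top ~1%) gates set on anti-HA fluorescence for expression and streptavidin fluorescence for reagent binding. Each polyreactivity label reflects the gate a clone came from. Genes were amplified by colony PCR, sequenced by MiSeq 2 × 250 and filtered by CDR length.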

Sequence	polyreactivity (PSR sort gate)
QVHLVESGGGLVQAGGSLRLSCAASGGIFDPYAMGWYRQAPGKERELVAAITNSGGSTYYADTLKGRFTISRDNAKNTVDLQMNSLKPEDTAVSYCAAEGLYVGYDYWGQGTEVTVSS	low polyreactivity
QVHLVESGGGLVQAGGSLRLSCAASGITDWIYAMGWYRQAPGKERELVAAITGRGGSTYYADSVKGRFTISRDKAKNTVYLQMNSLKPEVTAVDYCAAESWYSTYDYWGQGTQVTVSS	high polyreactivity
QVHLVESGGGLVQAGGSLRLSCAASGITFATYAMGWYRQAPGKERELVAAISGGGGRTYYADSVKGRFTISRDNAKNSVYLQMNSLKPEDTAVYYCATSQRSSQFYHWGQGTQVTVSS	high polyreactivity
QVHLVESGGGLVQAGGSLRLSCAASGITFYVYAMGWYRQAPGKERELVAAINYDSGSTYYADSVKGRFTISRDNAKNTVYLQMISLKPEDTAVYYCATDGVNPFYAYDYWGQGNQVTVSS	low polyreactivity
QVHLVESGGGLVQAGGSLRLSCAASGITIWNNAMGWYRQAPGKERELVATISSNGGRTYYADSVKGRFTISLDTAKNTVYFQMNSLKPEDTAVYYCNAARRAYGYNYWGQGTQVTVSS	low polyreactivity
QVHLVESGGGLVQAGGSLRLSCAASGLIFRKYAMGWYRQAPGKERELVAAISSGGDTNYADSVKGRFTISRDNAKNTVYLQMNSLKPEDTAVYYCNADRKYWYGIALEYWGQGTQVTVSS	high polyreactivity
QVHLVESGGGLVQAGGSLRLSCAASGLTFSSYSMGWYRQAPAKERELVATITSSGGDNTNYADSVKGRFTISRDNAKNTVYLQMNSLKPEDTAVYYFNKEGQQSYRWRMDYWGQGTQVTVSS	low polyreactivity
QVHLVESGGGLVQAGGSLRLSCAASGNIFYVYVMGWYRQAPGKERELVAYITSGASTYYSDSVKGRFTISRDNAKNTVYFQMNSLKPEDTAVYYCAAEALGGAGAYSTLYIYDYWGEGTQVTVSS	low polyreactivity
QVHLVESGGGLVQAGGSLRLSCAASGNTFDINAMGWYRQAPGKERELVAAISFSGGDTYYADSVKGRFTISRDNAKNTVYLQMNILKPEHTAVYYCAAEVPDTDAYGYWGQGTQVTVSS	low polyreactivity
QVHLVESGGGLVQAGGSLRLSCAASGNTFRWYDMGWYRQAPGKERELVAAITSSGSTTYYADSVKGRFTISRDNAKNTVYLQMNSLKPEDTAVFYCAARNYGPYDYWGQGTQVTVSS	low polyreactivity
QVHLVESGGGLVQAGGSLRLSCAASGRIFARYAMGWYRQAPGKEREFVASISFRGGSTYYADSVKGRFTISRDNAKNTVYLQMNSLKPEDTAVYYCAAEGYTRAYSGFYWYDYWGQGTQVTVSS	high polyreactivity
QVHLVESGGGLVQAGGSLRLSCAASGRIFDDYAMGWYRQAPGKERELVAAISWSGGSTYYADSVKVRFTISRDNAKNTVYLQRNSLKPEDTAVYYCAAPYHYYKRIGYDYWGQGTQVTVSS	low polyreactivity
QVHLVESGGGLVQAGGSLRLSCAASGRIFFYYAMGWYRQAPGKERELVAAISSTGGSTNYADSVKGRFTISRDNAKNTVYLQMNSLKPEDTAVYYCNKDLYYAYDYWGQGTQVTVSS	low polyreactivity
QVHLVESGGGLVQAGGSLRLSCAASGRIFGEYAMGWYRQAPGKERELVAAINSCGTSTNYADSVKGRLTFSRDNAKNTVYLQMNSLKPEDTAVYYCNAVGTYRPEYDSWVQGTQVTVSS	low polyreactivity
QVHLVESGGGLVQAGGSLRLSCAASGRIFGIYAMGWYRQAPGKERELVALITGGGSTNYADSVKGRFTISRDNAKNTVYLQMNSLKPEDTAVYYCAATVRRIVGNITRYDYWGQGTQVTVSS	low polyreactivity
QVHLVESGGGLVQAGGSLRLSCAASGRIFGLYAMGWYRQAPGKERELVASISYNGGSTYYADSVKGRFTISRDNAKNTVYLQMNSLKPEDTAVYYCAASLYYYGVRFGYWGQGTQVTVSS	high polyreactivity
QVHLVESGGGLVQAGGSLRLSCAASGRIFKIYAMGWYRQAPGKERELVASISWSGGRTYYADSVKGGFTISRDNAKNTVYVQMNSLKPEDTAVYYCAATFSNSSYIYDFWGQGTHVTVSS	high polyreactivity
QVHLVESGGGLVQAGGSLRLSCAASGRIFNSNAMGWYIQEPGKERELAAAISKRGGSTFYADSVKGRFTISRDNGKNTVFLQMKSLKPEYSAVYYCNARRLSTGFDRYDYWGQGTQVTGSS	high polyreactivity
QVHLVESGGGLVQAGGSLRLSCAASGRIFPGYAMGWYRQAPGKERELVAAISWIGGDTYYADSVKGRFTISRDNAKNTVYLQMNSLIPEDTAVYYCAARYGRHRVSWYATWRYGYWGQGTQVTVSS	low polyreactivity
QVHLVESGGGLVQAGGSLRLSCAASGRIFRVYAMGWYRQAPGKERELVAAIRWSTGSTYYADSVKGRFTISRDIAKNTVYLHMNSLKPEDTAVYYCASYYYSSCSKFDYWGQGTQVTVSS	high polyreactivity
QVHLVESGGGLVQAGGSLRLSCAASGRIFTYKAMGWYRQAPGKERELVAAITYRRSSTYYADSVKGRFTISRDNAKNTVYLQMNSLKTEDTAVYYCAAVFSGFYYAYDYWGQGTQVTVSS	high polyreactivity
QVHLVESGGGLVQAGGSLRLSCAASGRILPFYAMGWYRQAPGKERELVATISWTSDSTYYADSVKGRFTISRDNAKNTVYLQMNSLKPEDTAVYYCAREYTYTYASTVIYDHWGQGTQVTVSS	low polyreactivity

Sequence	polyreactivity (PSR sort gate)
QVHLVESGGGLVQAGGSLRLSCAASGRILVRYAMGWYRQAPGKERELVAAISSSGSSTYYADSVKGRFTISRDNAKNTVYLQMNSLKPEDTAVYYCNKPDVTRGRDVYYWGQGTQVTVSS	low polyreactivity
QVHLVESGGGLVQAGGSLRLSCAASGRIRYYAMGWYRQAPGKERELVAAITSSGGSTYYADSVKGRFTISRDNAKNTVYLQMNSLKPEVTAVYYCIAVASLSGDYWGQGTQVTVSS	high polyreactivity
QVHLVESGGGLVQAGGSLRLSCAASGRIYTGNTMVWYRQAPGKEREFVAAISGSGGRTFYADSVKGRFTISRDNEKNTVYLQMNSLKPEDTAVYYCAARRYRSLGSYGTGSFSYNYWGQGTQVTVSS	high polyreactivity
QVHLVESGGGLVQAGGSLRLSCAASGRNFGTYAMGWYRQAPGKDRELVADISSSGTSTYYADSVKGRFTISRDNAKNTVYLQMNSLKPEDTAVSYCDVVAIDYAYDYYFRLGYDYWGQGTQVSVSS	low polyreactivity
QVHLVESGGGLVQAGGSLRLSCAASGRTFDYNAMGWYRQATGKERELVAAIRFGGGSTYYADSVKGRFTISRDNAKNTVYLQMNSLKPEDTAVYYCNASPLWIGWEIVPVGSSHYDYWGQGTQVTVSS	low polyreactivity
QVHLVESGGGLVQAGGSLRLSCAASGRTFGLYDMGWYRQAPGKERELVAGITRRGGRTYYADSVKGRFTISRDNAKNTVYLQMNSLKPEDTAVYYCAAGTIYLRHAQSPFDYWGQGTQVTVSS	high polyreactivity
QVHLVESGGGLVQAGGSLRLSCAASGRTFGYYAMGWYRHAPGKERELVAAISRSAATTYYADSVKGRFSISRDNAKNTVYLQMYSLKPDDTAVYYCAAGGRTYAPCDYGYWGQGTQVTVSS	high polyreactivity
QVHLVESGGGLVQAGGSLRLSCAASGRTFGYYAMGWYRPAPWKEWELVAAITQSGGSTYYADSVKGRFTISRDTAKITVYLQMHSLKPEDTAVYYCAADDKYFYPGNGYWGQGTQVTVSS	high polyreactivity
QVHLVESGGGLVQAGGSLRLSCAASGRTFIYYAMGWYRQAPGKERELVAAISSGGSTDYADSVKGRFTISRDNAKNTVYLQMNSLKPEDTAVYYCSAVVGYITYYGYDYWGQGTQVTVSS	low polyreactivity
QVHLVESGGGLVQAGGSLRLSCAASGRTFRLYAMGWYRQAPGKERELVAAITRGGRTNYADSVKGRFTISRDNAKNTVFLQMISLKPEDTAVYYCAARYVERHTDYYYWGQGTQVTVSS	low polyreactivity
QVHLVESGGGLVQAGGSLRLSCAASGRTFRSNAMGWYRQAPGKEREFVAAISGRGGITYYADSVKGRFTISRDNAKNTVYLQMNSLKPEDTAVYYCNRDVKYHDYVYVTAIKSPGYNYWGQGTQVTVSS	low polyreactivity
QVHLVESGGGLVQAGGSLRLSCAASGRTFYIYAMGWYRQAPGKERELVAGIRWSGDSTYYADSVKGRFTISRDNAKNTVYLQMNRLKPEDTAVYYCAADISYELLSYYWYYYWGQGSQVTVSS	high polyreactivity
QVHLVESGGGLVQAGGSLRLSCAASGRTFYLYTMGWYRQAPGKEREFVAIISRSGASTRYADSVKGRFTISRDNAKNTVYLQMNSLKPEDTAVYYCAAYVGYPYDYWGQGTQVTVSS	high polyreactivity
QVHLVESGGGLVQAGGSLRLSCAASGRTFYYNAMGWYRQEPGKEREFVAAIRYSGSITYYADSVKGRFTISRDNAKNTVYLQMNSLKPEDTAVYYCAADYVSRRYYYWGQGTQVTVSS	high polyreactivity
QVHLVESGGGLVQAGGSLRLSCAASGRTIQTYTMGWYRQAPGKERELVAVITTRGGRTYYADSVKGRFTISRDNAKNTVYLQMNILKPEDTGVYYCNKGITTRSVRSYDYWGQGTQVTVSS	high polyreactivity
QVHLVESGGGLVQAGGSLRLSCAASGSIFASNTMGWYRQAPGKERELVAGITKIGSSTYYADSVKGRFTISRDNAKNTVYLQMNSLKPEDTAVYYCNAYGPNIYSSRYDYWGQGTQVTVSS	low polyreactivity
QVHLVESGGGLVQAGGSLRLSCAASGSIFAVNAMGWYRQAPGKERELVAVITSRGGSTYYADSVKGRFTISRDNAKNTVYLQMNSLKPEDTAVYYCAARPGAAGYKYYYWGQGTQVTVSS	high polyreactivity
QVHLVESGGGLVQAGGSLRLSCAASGSIFFVNAMGWYRQAPGKERELVADISSGGSTNYADSVKGRFTISRDNAKNTVYLQMNSLKPEDTAVYYCNTDEPPIYERFPYDYWGQGTQVTVSS	low polyreactivity
QVHLVESGGGLVQAGGSLRLSCAASGSIFGRYAMGWYRQAPGKEREFVAAISRGATNTYYADSVKGRFTISRDNAKNTVYLQMNSLKPEDTAVYYCARTQRYDYGYDYWGQGTQVTVSS	low polyreactivity
QVHLVESGGGLVQAGGSLRLSCAASGSIFIYNAMGWYRQAPGKERELVAAISWSGDSTYYADSVKGRFTISRDNAKNTVYLQMNSLKPEDTAVYYCNAKPSRKWGRGTGKQYDYWGQGTQVTVSS	high polyreactivity
QVHLVESGGGLVQAGGSLRLSCAASGSIFKKNTLGWYRQAPGKERELVAVISSSGTRTYYADSVKGRFTISRDNAKNTVYLQMNSLKPEDTAVYYCARRAGGERDDYWGQGTQVTVSS	high polyreactivity
